Assay results taken from PMC12409425, “Two distinct protein-protein interfaces drive cooperative binding of the herpes simplex virus protein ICP8 to ssDNA, filament formation and annealing essential for viral replication” (The Journal of Biological Chemistry, 2025).

Experiments:
ICP8Δ60 = ICP8Δ60 (Herpes simplex virus type 1 (KOS), UniProt P17470 1-1136); test: MST; 20 nM DNA; EMSA: 20 mM HEPES pH 7.5, 150 mM KCl, 2 mM EDTA, 1 mM TCEP, 6% Ficoll, on ice 30 min, gel at 4 °C; thermal shift: 20 mM Na phosphate (SI: HEPES) pH 7.6, 100 mM; conditions: protein: recombinant; tags: none stated; label: 5' Cy5; single strand
ICP8 WT = ICP8 WT (Herpes simplex virus type 1 (KOS), UniProt P17470 1-1196); test: EMSA; cooperative supershifted band present; EMSA: 20 mM HEPES pH 7.5, 150 mM KCl, 2 mM EDTA, 1 mM TCEP, 6% Ficoll, on ice 30 min, gel at 4 °C; thermal shift: 20 mM Na phosphate (SI: HEPES) pH 7.6, 100 mM; conditions: protein: recombinant; tags: none stated; chain copies: 4; label: Cy5; single strand
[1] = target: T1, ICP8Δ60 (HSV-1 ICP8 lacking the 60-aa C-terminal tail) (herpes simplex virus type 1 (HSV-1), …, UniProt P17470 1-1136, in the MST only: labelled on amines with the red dye NT-647-NHS (RED-NHS Monolith kit); unlabelled in the thermal shift assays); test: label-free thermal shift (nanoDSF, Tycho NT.6); 5 μM ICP8Δ60 with a molar excess of CTD fragment (1:10 M ratio), no ssDNA; shift of the inflection temperature Ti of ICP8Δ60; 20 mM Na phosphate pH 7.6, 100 mM NaCl, 100 μM EDTA, 1 mM TCEP, 10% glycerol, 5 mM MgCl2; heated at 30 °C/min; conditions: both partners purified
T1 construct: the tail is printed as residues 1136-1196; source: Sf9 insect cells infected with recombinant baculovirus (pFastBac1-ICP8Δ60), purified (SP-Sepharose cation exchange)
T1 sequence: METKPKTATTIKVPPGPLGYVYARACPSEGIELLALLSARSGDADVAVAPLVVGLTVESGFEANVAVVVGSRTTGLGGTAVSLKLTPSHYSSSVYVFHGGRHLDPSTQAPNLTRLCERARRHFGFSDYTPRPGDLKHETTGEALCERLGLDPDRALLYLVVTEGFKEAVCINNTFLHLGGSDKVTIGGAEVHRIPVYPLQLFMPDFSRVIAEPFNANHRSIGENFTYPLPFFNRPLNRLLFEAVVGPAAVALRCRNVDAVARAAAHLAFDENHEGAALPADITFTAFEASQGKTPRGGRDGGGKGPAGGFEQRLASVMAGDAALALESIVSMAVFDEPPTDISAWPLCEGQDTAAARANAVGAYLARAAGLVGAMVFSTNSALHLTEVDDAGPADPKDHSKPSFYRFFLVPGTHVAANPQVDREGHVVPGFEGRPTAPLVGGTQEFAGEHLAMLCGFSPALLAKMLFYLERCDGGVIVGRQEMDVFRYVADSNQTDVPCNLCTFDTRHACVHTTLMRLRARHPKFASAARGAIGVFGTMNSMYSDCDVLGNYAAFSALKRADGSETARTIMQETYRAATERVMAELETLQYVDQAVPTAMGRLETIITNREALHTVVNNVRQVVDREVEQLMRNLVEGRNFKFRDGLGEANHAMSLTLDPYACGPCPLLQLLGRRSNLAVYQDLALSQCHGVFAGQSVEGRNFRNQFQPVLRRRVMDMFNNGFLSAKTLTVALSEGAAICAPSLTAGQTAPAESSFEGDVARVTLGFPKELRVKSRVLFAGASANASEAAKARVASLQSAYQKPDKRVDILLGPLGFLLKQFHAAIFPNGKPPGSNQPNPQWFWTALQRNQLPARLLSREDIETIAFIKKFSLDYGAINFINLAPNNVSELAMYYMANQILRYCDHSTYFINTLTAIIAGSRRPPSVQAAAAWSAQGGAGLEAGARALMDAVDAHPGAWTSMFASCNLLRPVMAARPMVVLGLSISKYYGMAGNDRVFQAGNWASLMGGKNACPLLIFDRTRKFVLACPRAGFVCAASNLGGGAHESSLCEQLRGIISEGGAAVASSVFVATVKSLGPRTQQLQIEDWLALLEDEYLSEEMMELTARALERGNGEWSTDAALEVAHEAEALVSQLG

[2] = target: T1, ICP8Δ60 (HSV-1 ICP8 lacking the 60-aa …); test: label-free thermal shift (nanoDSF, Tycho NT.6); as a1 (1:10 M ratio), with 1.2 M excess of a 19-mer ssDNA added to the preformed binary complex; ΔTi counted against apo ICP8Δ60 without ssDNA (ssDNA alone gives 1.1 °C); conditions: both partners purified
[3] = target: T1, ICP8Δ60 (HSV-1 ICP8 lacking the 60-aa …); test: MST; ICP8Δ60 labelled with NT-647-NHS at 20 nM or 50 nM, unlabelled CTD fragment titrated from low nanomolar to high micromolar; 20 mM sodium phosphate pH 7.5, 100 mM NaCl, 0.1 mM EDTA, 2 mM DTT, 5 mM MgCl2, 0.05% Tween 20; 30 min at RT; one site binding model; conditions: both partners purified
[4] = target: the molecule itself; test: negative-stain electron microscopy of filament formation; 0.5 μM protein overnight at 4 °C in 20 mM HEPES-KOH pH 7.5, 100 mM NaCl, 10% glycerol, 1 mM DTT, 0.1 mM EDTA, 5 mM MgCl2; uranyl acetate stain; no DNA
[5] = target: T1, ICP8Δ60 (HSV-1 ICP8 lacking the 60-aa …); test: label-free thermal shift (nanoDSF), dose series refitted with MoltenProt; 5 μM ICP8Δ60 preincubated with 10 to 100 μM CTD fragment (1:2 to 1:20 M ratio) for 3 h at room temperature; two-state reversible unfolding model; conditions: both partners purified

| Binder | ΔTi of ICP8Δ60 (Ti complex - Ti apo), - ssDNA [1] [°C] | ΔTi of ICP8Δ60 (Ti complex - Ti apo), + ssDNA [2] [°C] | Kd [3] [nM] | further results |
| --- | --- | --- | --- | --- |
| TTTTTTTTTTTTTTTTTTTTTTTTT (ssDNA) [Cy5-25-mer poly(dT)] | – | – | – | Kd (ICP8Δ60): 70 nM |
| TTTTTTTTTTTTTTTTTTTTTTTTTTTTTTTTTTTTTTTTTTTTTTTTTT (ssDNA) [Cy5-50-mer dT] | – | – | – | binding result (ICP8 WT): binds |
| ICP8-CTD Δ60 (domain or fragment, ICP8 (UL29) of HSV-1, C-terminal domain (begins at 1036) with the last 60 residues deleted; source: E. coli BL21 (pET28a-His-ICP8-CTDΔ60), purified (Talon cobalt beads, Superose 12 gel filtration)) AASNLGGGAHESSLCEQLRGIISEGGAAVASSVFVATVKSLGPRTQQLQIEDWLALLEDEYLSEEMMELTARALERGNGEWSTDAALEVAHEAEALVSQLG | 0.7 | 2 | 53500 | – |
| ICP8 WT, full length (natural protein, also called WT ICP8; full-length ICP8) METKPKTATTIKVPPGPLGYVYARACPSEGIELLALLSARSGDADVAVAPLVVGLTVESGFEANVAVVVGSRTTGLGGTAVSLKLTPSHYSSSVYVFHGGRHLDPSTQAPNLTRLCERARRHFGFSDYTPRPGDLKHETTGEALCERLGLDPDRALLYLVVTEGFKEAVCINNTFLHLGGSDKVTIGGAEVHRIPVYPLQLFMPDFSRVIAEPFNANHRSIGENFTYPLPFFNRPLNRLLFEAVVGPAAVALRCRNVDAVARAAAHLAFDENHEGAALPADITFTAFEASQGKTPRGGRDGGGKGPAGGFEQRLASVMAGDAALALESIVSMAVFDEPPTDISAWPLCEGQDTAAARANAVGAYLARAAGLVGAMVFSTNSALHLTEVDDAGPADPKDHSKPSFYRFFLVPGTHVAANPQVDREGHVVPGFEGRPTAPLVGGTQEFAGEHLAMLCGFSPALLAKMLFYLERCDGGVIVGRQEMDVFRYVADSNQTDVPCNLCTFDTRHACVHTTLMRLRARHPKFASAARGAIGVFGTMNSMYSDCDVLGNYAAFSALKRADGSETARTIMQETYRAATERVMAELETLQYVDQAVPTAMGRLETIITNREALHTVVNNVRQVVDREVEQLMRNLVEGRNFKFRDGLGEANHAMSLTLDPYACGPCPLLQLLGRRSNLAVYQDLALSQCHGVFAGQSVEGRNFRNQFQPVLRRRVMDMFNNGFLSAKTLTVALSEGAAICAPSLTAGQTAPAESSFEGDVARVTLGFPKELRVKSRVLFAGASANASEAAKARVASLQSAYQKPDKRVDILLGPLGFLLKQFHAAIFPNGKPPGSNQPNPQWFWTALQRNQLPARLLSREDIETIAFIKKFSLDYGAINFINLAPNNVSELAMYYMANQILRYCDHSTYFINTLTAIIAGSRRPPSVQAAAAWSAQGGAGLEAGARALMDAVDAHPGAWTSMFASCNLLRPVMAARPMVVLGLSISKYYGMAGNDRVFQAGNWASLMGGKNACPLLIFDRTRKFVLACPRAGFVCAASNLGGGAHESSLCEQLRGIISEGGAAVASSVFVATVKSLGPRTQQLQIEDWLALLEDEYLSEEMMELTARALERGNGEWSTDAALEVAHEAEALVSQLGNAGEVFNFGDFGCEDDNATPFGGPGAPGPAFAGRKRAFHGDDPFGEGPPDKKGDLTLDML | – | – | – | binding result [4]: binds |
| ICP8-CTD WT (His-tagged entire C-terminal domain of ICP8, residues 1036-1196) (domain or fragment, ICP8 (UL29) of HSV-1, entire C-terminal domain with the helical bundle and the intact 60-aa disordered tail, residues 1036-1196; The methods give no limits for the pET28a construct and give aa 1049-1135 for the Flag-tagged CTD of the cell experiments; also called WT ICP8-CTD; WT CTD; source: E. coli BL21 (pET28a-His-ICP8-CTD, codon optimised), purified (Talon cobalt beads, Superose 12 gel …)) AASNLGGGAHESSLCEQLRGIISEGGAAVASSVFVATVKSLGPRTQQLQIEDWLALLEDEYLSEEMMELTARALERGNGEWSTDAALEVAHEAEALVSQLGNAGEVFNFGDFGCEDDNATPFGGPGAPGPAFAGRKRAFHGDDPFGEGPPDKKGDLTLDML | 2.1 | 2.9 | 147 | Ti of ICP8Δ60 at 1:2 ratio (ICP8Δ60 alone 51.5) [5]: 52.1 ± 0.1 °C; Ti of ICP8Δ60 at 1:5 ratio (ICP8Δ60 alone 51.5) [5]: 52.7 ± 0.1 °C; Ti of ICP8Δ60 at 1:10 ratio (ICP8Δ60 alone 51.5) [5]: 53.3 ± 0.1 °C; Ti of ICP8Δ60 at 1:20 ratio (ICP8Δ60 alone 51.5) [5]: 53.9 ± 0.1 °C |
| ICP8-CTD FNF→AAA (domain or fragment, ICP8 (UL29) of HSV-1, C-terminal domain, residues 1036-1196, with the triple alanine substitution of F1142, N1143 and F1144; the text has 1142-1144; also called FNF→AAA CTD; source: E. coli BL21 (pET28a-His-ICP8-CTD mutant), purified (Talon cobalt beads, Superose 12 gel filtration)) AASNLGGGAHESSLCEQLRGIISEGGAAVASSVFVATVKSLGPRTQQLQIEDWLALLEDEYLSEEMMELTARALERGNGEWSTDAALEVAHEAEALVSQLGNAGEVAAAGDFGCEDDNATPFGGPGAPGPAFAGRKRAFHGDDPFGEGPPDKKGDLTLDML | 0.6 | 1.9 | 21100 | – |
| ICP8-CTD D1087A (domain or fragment, ICP8 (UL29) of HSV-1, C-terminal domain, residues 1036-1196, with D1087A; source: E. coli BL21 (pET28a-His-ICP8-CTD mutant), purified (Talon cobalt beads, Superose 12 gel filtration)) AASNLGGGAHESSLCEQLRGIISEGGAAVASSVFVATVKSLGPRTQQLQIEAWLALLEDEYLSEEMMELTARALERGNGEWSTDAALEVAHEAEALVSQLGNAGEVFNFGDFGCEDDNATPFGGPGAPGPAFAGRKRAFHGDDPFGEGPPDKKGDLTLDML | 1 | 2.4 | 1550 | – |
